Results from patent US20250340595A1 (published 2025).
“And” between values parts separate entries of the source, which are not always exact repeats. Identical values can stand only once. Like-named read-outs stand apart in the source and are kept apart here. Starred links: 1 amine or outer side, 2 acyl side, 3 side chain; linkers in the order of their positions; H or OH if unused. Positions of bridges follow the written chain, without caps; N, C: chain ends. Non-standard residues stand in square brackets, D forms with d. No end group written: not given here. *: point of attachment. TATB = O=C(C[*:1])N1CN(C(=O)C[*:2])CN(C(=O)C[*:3])C1; 1Nal = N[C@@H](Cc1cccc2ccccc12)C(=O)O; 2Nal = N[C@@H](Cc1ccc2ccccc2c1)C(=O)O; AzPro = azidopropyl, [N-]=[N+]=NCCC*; Hyp = O=C(O)[C@@H]1C[C@@H](O)CN1; tBuAla = CC(C)(C)C[C@H](N)C(=O)O; 4Pal = N[C@@H](Cc1ccncc1)C(=O)O; Tle = CC(C)(C)[C@H](N)C(=O)O; Aib = CC(C)(N)C(=O)O

Legend:
[1] = target: T1, Human TfR1 protein (R&D Systems, 2474-TR or Acro Biosystems, CD1-H5243) (human, UniProt P02786 89-760); assay: FP competition, competitor BCY15768
[2] = target: T1, Human TfR1 protein (R&D Systems, …); assay: FP competition, competitor BCY15768; remark: listed apart in the source
[3] = target: T2, Recombinant human TfR1, His6-tagged (a.a. 89-760) (human, UniProt P02786 89-760); assay: SPR, TfR1 on chip
T2 construct: range 89-760; captured and coupled on an NTA chip for SPR; also called transferrin receptor 1; CD71

[4] = target: T3, Recombinant cynomolgus TfR1, His6-tagged (a.a. 89-760) (cynomolgus, UniProt H9EXL1 89-760 (rhesus entry)); assay: SPR, TfR1 on chip
T3 construct: range 89-760; same product number named for FP and SPR; also called Cyno TfR1; Acro Biosystems TFR-C524a
T3 sequence (chain, as listed by the source): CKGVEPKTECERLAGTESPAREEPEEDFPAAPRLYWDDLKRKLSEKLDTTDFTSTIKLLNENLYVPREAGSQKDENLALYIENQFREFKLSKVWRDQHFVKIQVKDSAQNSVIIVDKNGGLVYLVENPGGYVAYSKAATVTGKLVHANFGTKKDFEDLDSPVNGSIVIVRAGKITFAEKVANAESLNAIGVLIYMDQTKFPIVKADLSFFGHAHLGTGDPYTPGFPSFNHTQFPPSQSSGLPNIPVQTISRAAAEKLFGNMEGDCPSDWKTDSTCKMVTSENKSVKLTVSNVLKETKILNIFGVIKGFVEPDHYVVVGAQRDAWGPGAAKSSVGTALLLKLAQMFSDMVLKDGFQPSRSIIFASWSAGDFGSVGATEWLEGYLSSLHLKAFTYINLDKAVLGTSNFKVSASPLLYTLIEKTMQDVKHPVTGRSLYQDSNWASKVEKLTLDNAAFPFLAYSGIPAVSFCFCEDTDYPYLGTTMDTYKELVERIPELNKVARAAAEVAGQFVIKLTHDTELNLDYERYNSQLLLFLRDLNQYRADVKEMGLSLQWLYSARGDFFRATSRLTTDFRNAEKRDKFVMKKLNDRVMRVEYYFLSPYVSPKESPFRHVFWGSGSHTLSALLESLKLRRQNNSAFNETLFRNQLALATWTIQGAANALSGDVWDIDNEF

T2 sequence (P02786 89-760 limits assumed): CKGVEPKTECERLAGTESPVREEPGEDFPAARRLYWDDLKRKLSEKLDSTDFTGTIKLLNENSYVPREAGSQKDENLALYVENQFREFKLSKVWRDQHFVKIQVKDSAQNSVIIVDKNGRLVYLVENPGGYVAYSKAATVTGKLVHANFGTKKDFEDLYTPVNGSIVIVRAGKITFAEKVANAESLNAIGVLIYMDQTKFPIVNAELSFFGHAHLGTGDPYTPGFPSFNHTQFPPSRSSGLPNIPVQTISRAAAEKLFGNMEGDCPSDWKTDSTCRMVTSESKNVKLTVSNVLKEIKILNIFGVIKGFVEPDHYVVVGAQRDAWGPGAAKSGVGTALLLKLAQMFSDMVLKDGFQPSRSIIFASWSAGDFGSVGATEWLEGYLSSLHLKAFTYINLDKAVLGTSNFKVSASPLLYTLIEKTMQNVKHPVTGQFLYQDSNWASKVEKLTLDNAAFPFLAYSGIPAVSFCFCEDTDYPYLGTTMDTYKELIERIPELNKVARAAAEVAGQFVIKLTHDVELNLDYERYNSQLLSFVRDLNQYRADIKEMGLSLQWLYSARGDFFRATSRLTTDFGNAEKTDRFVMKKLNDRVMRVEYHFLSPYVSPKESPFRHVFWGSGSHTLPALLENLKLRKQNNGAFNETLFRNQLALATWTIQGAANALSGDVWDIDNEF
T1 sequence (P02786 89-760 limits assumed): as above

Binder | Ki [1] [nM] | Ki [2] [nM] | Kd [3] [nM] | Kd [4]
CSPDAHLGCISYC (3 Cys on a scaffold (TATA or TATB assumed by the filing for non-inhibitory peptides; not stated for this one)) [BCY15935] | 300 | 300 | – | –
ACSPDAHLGCIS[4Pal]CA (linker 2-10-14 via TATB) [BCY16032] | 654 | 654 | 305 | 30000 nM
ACSPDAHLGCISYCA (linker 2-10-14 via TATB) [BCY15468] | 103 | – | – | –
ACYLPDWXCGDEYCA (not fully specified; 3 Cys on TATB; core as printed CYLPDW[tBuAla]CGDEYC) [BCY15648] | – | 107 | – | –
NWNCSPDAHLGCISYCK (3 Cys on TATB; C-terminal [K(N3)] 6-azido lysine) [BCY17870] | 9 | – | – | –
ACSPDAHLGCXSYCA (3 Cys on TATB; core as printed CSPDAHLGC[B-Melle]SYC (beta-methyl isoleucine)) [BCY16040] | – | 20000 | – | –
ACPXDAHLGCISYCA (3 Cys on TATB; core as printed CP[Aib]DAHLGCISYC) [BCY16550] | 56 | 56 | 18 | 682 nM
ACSPDAYLGC[Tle]SYCA (linker 2-10-14 via TATB) [BCY16966] | – | – | – | 1900 nM
Ac-CPPDAHLGCISWC-NH2 (linker 1-9-13 via TATB; SMILES CC[C@H](C)[C@@H]1NC(=O)[C@@H]2CSCC(=O)N3CN(CN(C3)C(=O)CSC[C@H](NC(C)=O)C(=O)N3CCC[C@H]3C(=O)N3CCC[C@H]3C(=O)N[C@@H](CC(=O)O)C(=O)N[C@@H](C)C(=O)N[C@@H](Cc3c[nH]cn3)C(=O)N[C@@H](CC(C)C)C(=O)NCC(=O)N2)C(=O)CSC[C@@H](C(N)=O)NC(=O)[C@H](Cc2c[nH]c3ccccc23)NC(=O)[C@H](CO)NC1=O) [BCY15889] | – | 40 | – | –
ACSPDAHLGCIS[1Nal]CA (linker 2-10-14 via TATB) [BCY16029] | – | – | – | 5480 nM
ACP[Aib]DAYLGC[Tle]SYCA (linker 2-10-14 via TATB) [BCY16963] | – | – | – | 501 nM
ACS[Aib]DAHLGC[Tle]SYCA (linker 2-10-14 via TATB) [BCY16753] | 48 | 48 | 12 | 1700 nM
ACP[Aib]DAHLGC[Tle]SYCA (linker 2-10-14 via TATB) [BCY16962] | 36 | 36 | 6.1 | 599 nM
Ac-CSPDAHLGCISYC (linker 1-9-13 via TATB) [BCY15891] | 94 | 67 | 46 | 3990 nM
ACSPDAYLGC[tBuAla]SYCA (linker 2-10-14 via TATB) [BCY16558] | 1620 | 1620 | 20000 | 50000 nM
ACSPDAHLGCIS[2Nal]CA (linker 2-10-14 via TATB) [BCY16031] | 119 | 119 | 68 | 6480 nM

More lines, now with the values ahead:

Ki [1] [nM] | Ki [2] [nM] | Kd [3] [nM] | Kd [4] | Binder
– | – | – | 535 nM | Ac-NWNCSPDAHLGCISYC (linker 4-12-16 via TATB (inferred)) [BCY17992]
– | – | – | 1260 nM | ACSPDAHLGCISYCPIVH (linker 2-10-14 via TATB (inferred)) [BCY17120]
– | – | 1660 | – | CPXDAYLGCXSYC (3 Cys on TATA; N-terminal acetyl (Ac); core as printed CP[HyP]DAYLGC[tBuGly]SYC, Same peptide as BCY17991 but cyclised on TATA) [BCY20546]
– | – | – | 10300 nM | Ac-N[dW]NCSPDAHLGCISYC (linker 4-12-16 via TATB (inferred)) [BCY18035]
– | – | – | 845 nM | ACSPDAHLGCISYCEPW (linker 2-10-14 via TATB (inferred)) [BCY17114]
– | – | – | 281 nM and 535 nM | NWNCSPDAHLGCISYCA (linker 4-12-16 via TATB) [BCY17109]
– | – | – | 2080 nM | Ac-N[1Nal]NCSPDAHLGCISYC (linker 4-12-16 via TATB) [BCY18034]
8 | – | – | – | Ac-CP[Hyp]DAYLGCISYC (linker 1-9-13 via TATB) [BCY17990]
8 | 8 | – | 688 nM | Ac-CSPDAHLGCISYCEPW-NH2 (linker 1-9-13 via TATB (inferred)) [BCY17994]
– | – | – | 2600 nM | NEVCSPDAHLGCISYCA (linker 4-12-16 via TATB (inferred)) [BCY17112]
– | – | – | 1650 nM | Ac-CSPDAHLGCISYCE[dP]W (linker 1-9-13 via TATB (inferred)) [BCY18038]
– | 90 | 422 | 7310 nM | NWNCSPDAHLGCISYC (3 Cys on TATB; N-terminal acetyl (Ac); [NMeTrp] in N-terminal extension) [BCY18036]
– | – | – | 514 nM | ACPPDAYLGC[Tle]SYCA (linker 2-10-14 via TATB) [BCY16964]
5 | 2 | 3.4 | – | CPXDAYLGCXSYCEPW (3 Cys on TATB; N-terminal acetyl (Ac); core as printed CP[HyP]DAYLGC[tBuGly]SYC) [BCY17995]
– | 30 | – | – | Ac-CS[Hyp]DAHLGCISYC (linker 1-9-13 via TATB) [BCY17989]
9 | – | – | – | NWNCSPDAHLGCISYCK (3 Cys on TATB; N-terminal acetyl (Ac); C-terminal [K(N3)] 6-azido lysine) [BCY17871]
6 | 4 | – | 589 nM | NWNCPXDAYLGCXSYC (3 Cys on TATB; core as printed CP[HyP]DAYLGC[tBuGly]SYC) [BCY18033]
383 | 42 | 50 | 5140 nM | Ac-CSADAHLGCISYC (linker 1-9-13 via TATB (inferred)) [BCY17987]
– | – | – | 4660 nM | Ac-CAPDAHLGCISYC (linker 1-9-13 via TATB (inferred)) [BCY17986]
30 | – | – | – | AzPro-CSPDAHLGCISYC (linker 1-9-13 via TATB (inferred)) [BCY17869]
